Assay results: paper PMC7463553, “Thiol Redox Regulation of Plant β-Carbonic Anhydrase” (Biomolecules, 2020)

Molecular target: the molecule itself
Experiment: dynamic light scattering; 320 µM βCA1 after addition of 20 mM DTT or in the presence of 500 µM H2O2; 50 mM Na-phosphate pH 8; 25 °C; intensity converted to volume percentage

B1: β-carbonic anhydrase 1 (βCA1) from Arabidopsis thaliana (enzyme, UniProt P27140 114-347, looked up)
chain: ALQTGTSSDKKAFDPVETIKQGFIKFKKEKYETNPALYGELAKGQSPKYMVFACSDSRVCPSHVLDFQPGDAFVVRNIANMVPPFDKVKYGGVGAAIEYAVLHLKVENIVVIGHSACGGIKGLMSFPLDGNNSTDFIEDWVKICLPAKSKVISELGDSAFEDQCGRCEREAVNVSLANLLTYPFVREGLVKGTLALKGGYYDFVKGAFELWGLEFGLSETSSVKDVATILHWKL
notes: β-carbonic anhydrase 1 (βCA1, βCA1.1), Arabidopsis thaliana, UniProt P27140, At3g01500; The protein was analysed both reduced (DTT) and oxidised (H2O2); also called βCA1.1; chloroplast βCA; source: E. coli NiCo21 (DE3), purified (passage through a chitin column, Ni-NTA beads, dialysis)
stoichiometry N: 2
